Reference: US20140120109A1 (Regeneron, published 2014)
Changes are numbered by the printed parent chain. In names and notes the source's numbering stands.

B1: H4H1704N (antibody, human IgG4 S228P, V domains shown)
VH: EVQLVESGGGLVQPGGSLRLSCAVSGFTFSSYWMSWVRQAPGKGLEWVANIKEDGSEKNYVDSVKGRFTLSSDNAKNSLYLQMNSLRAEDTAVYYCAREDYDSYYKYGMDVWGQGTAVIVSS
VL: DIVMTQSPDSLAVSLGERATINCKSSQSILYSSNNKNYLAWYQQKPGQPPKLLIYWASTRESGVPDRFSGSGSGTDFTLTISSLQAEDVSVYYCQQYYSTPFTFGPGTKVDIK
notes: human IgG4(S108P) form of H2M1704N
B2: H4H1817N (antibody, human IgG4 S228P, V domains shown)
VH: QVQLQQWGAGLLKPSETLSLTCAVSGGSFSDYFWTWIRQPPGKGLEWIGEISHSGRTNYNPSLKSRVTISVDTSMSQFSLKMTSVTAADSAVYYCARDYPNWVFDYWGQGTLVTVSS
VL: EIELTQSPGTLSLSPGEGATLSCRASQSVFNSYLAWYQQKPGQAPRLLIYGASRRATGIPDRFSGSGSGTDFTLTISRLEPGDFAVYFCQQYGNSPLTFGGGTKVEIK
notes: human IgG4(S108P) form of H2M1817N
B3: H4H1745P (antibody, human IgG4 S228P, V domains shown)
VH: EVQLVESGGGLVQPGGSLRLSCAASGFTFSSYAMTWVRQAPGKGLEWVSGVSGRGGSTYYADSVKGRFTISRDNSKNTLYLQMNSLRAEDTAVYYCAYWDISSFDYWGQGTLVTVSS
VL: DIQLTQSPSFLSASVGDRVTITCWASQGISTYLAWYQQKPGKTPKLLIYAASTLQSGVPSRFSGSGSGTDFTLTISSLQPEDFATYYCQQFNSYPLTFGGGTKVEIK
B4: H4H1742P (antibody, human IgG4 S228P, V domains shown)
VH: EVQLVESGGGLVQPGGSLRLSCAASGFTFSNYVMNWVRQAPGKGLEWVSVISGSGGSTHYADSVKGRFTISRDNSKDALYLQMNSLRAEDTAVYYCAKGPLEAYYYYNGMDVWGQGTTVTVSS
VL: DIQLTQSPSFLSASVGDRVTITCWASQAISSYLAWYQHKPGRAPKLLIYSTSTLQSGVPSRFSGSGSGTEFTLTISSLQPEDFATYYCQQLNSYPTFGQGTKLEIK
B5: H4H1725P (antibody, human IgG4 S228P, V domains shown)
VH: QVQLVQSGAEVKKPGASVKVSCKASGYTFTGYYMHWVRQAPGQGLEWMGWIKPKSGGTNYVQKFQGRVTMTRDTSINTAYMELNNLKSDDTAVYYCATGGSQDASDFWGQGTMVTVSS
VL: DIQMTQSPSSVSASVGGRVTITCRASQDISIWLAWYQQKPGKAPNLLIYAASSLQSGVPSRFSGSGSGTDFTLTISSLQPEDFATYYCQQADSFPLTFGGGTKVEIK
B6: H4H1681N (antibody, human IgG4 S228P, V domains shown)
VH: EVQLLESGGGLVQPGKSLRLSCAVSGFTFSTYGMNWVRQAPGKGLEWVSSISGTGRTTYHADSVQGRFTVSRDNSKNILYLQMNSLRADDTAVYFCTKERGDYYYGVFDYWGQGTLVTVSS
VL: DIQMTQSPSTLSASVGDRVTITCRASQTISSWLAWYQQTPEKAPKLLIYAASNLQSGVPSRFSGSGSGTEFTLTISSLQPDDFATYYCQQYHRSWTFGQGTKVEIT
B7: H4H1804N (antibody, human IgG4 S228P, V domains shown)
VH: QVQLHQWGAGLLKPSETLSLTCAVSGVSFSDYHWAWIRQSPGKGLEWIGDINHRGRTNYNPSLKSRVTISLDTSGNPFSLKLTSVTAADTAVYYCARDFPNWVFDSWGQGILVTVSS
VL: EIVLSQSPGTLSLSPGERATLSCRASQSVSSSFLAWYQQYPGQAPRLLIYGASRRATGIPDRFRGSGSGTDFTLTISRLEPEDFAVYYCQQYGSSPLTFGGGTKVENK
notes: human IgG4(S108P) form of H2M1804N
B8: H4H1805N (antibody, human IgG4 S228P, V domains shown)
VH: QVQLQQWGAGLLKPSETLSLTCAVYGGSFTGFYWSWIRQPPGKGLEWIGEINHRGNTNYNPSLKSRVTMSVDTSKNQFSLNMISVTAADTAMYFCASPFYDFWSGSDYWGQGTLVTVSS
VL: DIMLTQTPLTSPVTLGQPASISCKSSQSLVHSDGNTYLSWLQQRPGQPPRLLFYKISNRFSGVPDRFSGSGAGTDFTLKISRVEAEDVGVYYCMQATQFPLTFGGGTKVEIK
notes: human IgG4(S108P) form of H2M1805N
B9: H4H1750P (antibody, human IgG4 S228P, V domains shown)
VH: QVQLVESGGGVVQPGRSLRLSCVASGFTFSNYGMHWVRQAPGKGLEWVAVISYDGNNDLYSDSVKGRFTISRDNAKNALSLQMTSLRAEDTAVYYCARDSTMTPYYYHGIDVWGQGTTVTVSA
VL: DIQMTQSPSSLSASVGDRVTITCRASQDIRNDLGWYQQKPGKAPKRLIYAASSLQSGVPSRFSGSGSGTDFTLTISSLQPEDFATYYCLQHNSYPPTFGQGTKVEIK

How the values were obtained:
[1] = target: T1, full length human TL1A expressed on HEK293 cells (human, UniProt O95150 1-251); test: flow, HEK293/hTL1A, mAb 0.1 ug/ml + 0.03 ug/ml soluble hTL1A
T1 construct: also called HEK293/hTL1A; cell-surface hTL1A
T1 sequence: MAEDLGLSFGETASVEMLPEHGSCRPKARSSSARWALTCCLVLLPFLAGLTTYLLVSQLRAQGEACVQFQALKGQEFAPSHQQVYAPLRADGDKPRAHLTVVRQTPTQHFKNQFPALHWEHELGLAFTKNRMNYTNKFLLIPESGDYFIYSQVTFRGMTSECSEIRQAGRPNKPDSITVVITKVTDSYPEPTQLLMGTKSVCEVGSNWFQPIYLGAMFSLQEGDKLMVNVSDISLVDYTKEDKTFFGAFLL
Procedure: (§1) Human embryonic kidney 293 cells stably transfected to over-express cell-surface hTL1A were first stained in a flow cytometric experiment with eight anti-hTL1A antibodies at four concentrations (1, 0.1, 0.01, and 0.003 μg/ml). […] The lowest antibody concentration providing significant staining levels was then used in a competition binding experiment. A negative isotype control antibody (human IgG4) was used at 1 μg/ml to define the background signal. For the competition experiment, eight antibody samples, at the minimal concentrations identified above, were first treated with soluble hTL1A expressed from CHO cells at concentrations ranging from 0.03 μg/ml to 10 μg/ml. After pre-incubation for 30 min on ice, the antibody/hTL1A mixture was added to 293/HEK-hTL1A cells that had been isolated by centrifugation in a 96-well conical plate. After incubation for an additional 10 minutes on ice, the cells were washed. The secondary reagent, anti-h Fcγ-APC F(ab′)₂, was added to all wells at a 200-fold dilution to detect bound antibodies. Samples were incubated for 15 minutes on ice, away from light, and then washed. Cells were processed on an BD™ LSR II Flow Cytometer (BD Biosciences) to detect anti-hTL1A antibodies bound to the cell surface, and data were analyzed using FlowJo software (version 8.8.6; Tree Star Inc.). Maximum signal: Anti-hTL1A antibody binding in the absence of soluble hTL1A; Minimum signal: Signal recorded when […] of isotype control antibody was added in place of the anti-hTL1A antibody. NT: Not tested.

[2] = target: T1, full length human TL1A expressed on …; test: flow, HEK293/hTL1A, mAb 1 ug/ml + 0.1 ug/ml soluble hTL1A
Procedure: as §1

[3] = target: T2, Fhm, hTL1A(Q167R), soluble, CHO-expressed, residues 72-251 of SEQ ID NO:246 (human, UniProt O95150 72-251); test: ELISA, blocks FHM (10 pM) binding hDcR3-Fc; blocking of FHM binding to DcR3
T2 construct: also called Fhm (CHO); FHM (CHO)
T2 chain: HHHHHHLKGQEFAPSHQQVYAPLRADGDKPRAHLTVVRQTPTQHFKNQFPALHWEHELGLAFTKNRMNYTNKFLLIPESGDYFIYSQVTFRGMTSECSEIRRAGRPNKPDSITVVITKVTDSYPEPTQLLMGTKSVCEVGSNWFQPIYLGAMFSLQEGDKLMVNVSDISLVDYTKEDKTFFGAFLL
Procedure: The ability of antibodies to block human TL1A binding to its cognate receptors, the DR3 and DcR3 receptors, was measured using a competition sandwich ELISA. In addition, blocking of a human TL1A variant FHM (human TL1A Q167R) and the cynomolgus monkey (Macaca fascicularis) TL1A (MfTL1A) protein binding to the human DR3 or DcR3 receptors was measured in the same manner. Constant amounts of biotinylated human TL1A or FHM (both expressed with a 6-His tag in CHO cells) or biotinylated MfTL1A (expressed in CHO cells) were separately titrated with varying amounts of antibodies. The antibody-protein complexes were incubated in solution (1 hr, 25° C.) and then transferred to microtiter plates coated with human DR3 (hDR3) or human DcR3 (hDcR3) expressed as human IgG1 Fc fusion proteins. After one hour at 25° C. the wells were washed, and bound human or monkey TL1A was detected with streptavidin conjugated with horseradish peroxidase (HRP). Wells were developed with a TMB solution to produce a colorimetric reaction and quenched with aqueous sulfuric acid before reading absorbance at 450 nm on a Perkin-Elmer Victor X5 plate reader. A sigmoidal dose-response curve was fit to the data using the Prism™ data analysis package. […] Both fully human anti-hTL1A mAbs and comparator antibodies, i.e., control mAb1 (an anti-hTL1A antibody with heavy and light chain variable domains having the amino acid sequences corresponding to SEQ ID NOS:21 and 27, respectively, of US 2009/0280116) and control mAb3 (an anti-hTL1A antibody with heavy and light chain variable domains having the amino acid sequences corresponding to SEQ ID NOS:57 and 48, respectively, of US 2009/0280116), were included in the study. NB: No binding under the conditions tested; NT: Not tested. Concentrations of biotinylated soluble ligands: (1) 150 pM; (2) 500 pM; (3) 10 pM; and (4) 50 pM.

[4] = target: T3, cynomolgus monkey TL1A, soluble, CHO-expressed, residues 72-251 of SEQ ID NO:248 with N-terminal His6-tag (cynomolgus monkey (Macaca fascicularis), UniProt O95150 72-251 (human entry)); test: SPR 25C, mAb captured; SPR, 25 C
T3 construct: also called MfTL1A; MfTL1A (CHO)
T3 chain: T2 chain with F45L, I84V, R102Q

MFI [1]	MFI [2]	other results	Binder
163	–	–	B1
–	97.2	–	B2
–	93.1	–	B3
–	79.4	–	B4
207	–	–	B5
–	327	IC50 [3]: 90 pM	B6
126	–	–	B7
156	–	IC50 [3]: 436 pM	B8
–	–	Kd [4]: 8600 pM; t1/2 [4]: 21 min	B9
